{"source": "patent US20050058651A1", "about": "(published 2005)", "molecular_target": "T1, rat hnRNP M4 expressed in P388D1 mouse macrophage cells by transient transfection of hnRNP M4/pBK-CMV (rat, UniProt Q62826 2-690)", "T1 construct": "also called pBK-CMV/hnRNP M4", "T1 sequence": "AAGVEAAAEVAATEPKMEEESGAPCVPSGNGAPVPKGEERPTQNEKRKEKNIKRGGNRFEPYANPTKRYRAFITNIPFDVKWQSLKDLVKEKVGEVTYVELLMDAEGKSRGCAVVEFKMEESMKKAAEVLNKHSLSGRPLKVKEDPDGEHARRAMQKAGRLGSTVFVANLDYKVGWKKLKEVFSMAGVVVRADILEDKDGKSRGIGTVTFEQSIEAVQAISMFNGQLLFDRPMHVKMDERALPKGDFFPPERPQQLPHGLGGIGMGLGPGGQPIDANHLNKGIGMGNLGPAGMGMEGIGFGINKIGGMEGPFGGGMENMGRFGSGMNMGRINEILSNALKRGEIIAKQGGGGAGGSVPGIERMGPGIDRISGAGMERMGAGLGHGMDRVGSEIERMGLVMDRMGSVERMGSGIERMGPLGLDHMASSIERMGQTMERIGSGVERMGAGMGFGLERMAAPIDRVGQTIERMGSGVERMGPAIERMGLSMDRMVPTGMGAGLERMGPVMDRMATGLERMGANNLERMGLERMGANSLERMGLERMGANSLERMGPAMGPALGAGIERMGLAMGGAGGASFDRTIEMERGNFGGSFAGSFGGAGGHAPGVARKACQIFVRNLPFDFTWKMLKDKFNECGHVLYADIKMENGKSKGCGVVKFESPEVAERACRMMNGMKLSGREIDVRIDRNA", "assay": "125I labeled CEA binding/uptake by P388D1 cells 48 h after transient transfection, compared with matching vector", "excerpt": "To begin to elucidate the mechanism underlying the intracellular signaling associated with KC activation and CEA binding, the hnRNP M4 cDNA in the pBK-CMV expression vector was introduced into CEA non-responsive macrophage cell lines. The hnRNP M4 transcription in this system was driven by the CMV promoter. […] An approximately 5 times increase in CEA uptake was observed on transfecting […] of hnRNP M4/pBK-CMV plasmid. This fact implies that hnRNP M4 cDNA can initiate CEA binding in P388D1 […] macrophage cell line and can act as a receptor for CEA. […] At present, the reasons for lack of response by IC21 cells are not known.\nTransient transfection of hnRNP M4 plasmid was carried out in P388D1 mouse lymphoid macrophage, IC21 mouse peritoneal and CRL2192 rat alveolar macrophage cell lines. As a positive control were used rat KC. The P388D1 cells were propagated in DMEM medium supplemented with 10% horse serum. The CRL 2192 cells were grown in F-12K medium (Kaighn's modification) supplemented with 15% FBS. The IC21 cells were grown in RPM1 1640 ATCC modified medium supplemented with 10% FBS. All cells were maintained at 37° C. in 5% CO₂ atmosphere. All tissue culture products were obtained from Life Technologies, USA. Cells for transfection were plated at 2-2.5.10⁵ cells per well in six well tissue culture clusters (Nunc products, Germany). […]", "data": [{"binder": "carcinoembryonic antigen (CEA) (ligand, UniProt P06731 35-685, looked up, 125I label in the phage-lift and cell binding assays; unlabeled soluble CEA in the blot overlay, also called soluble CEA; 125I labeled CEA) KLTIESTPFNVAEGKEVLLLVHNLPQHLFGYSWYKGERVDGNRQIIGYVIGTQQATPGPAYSGREIIYPNASLLIQNIIQNDTGFYTLHVIKSDLVNEEATGQFRVYPELPKPSISSNNSKPVEDKDAVAFTCEPETQDATYLWWVNNQSLPVSPRLQLSNGNRTLTLFNVTRNDTASYKCETQNPVSARRSDSVILNVLYGPDAPTISPLNTSYRSGENLNLSCHAASNPPAQYSWFVNGTFQQSTQELFIPNITVNNSGSYTCQAHNSDTGLNRTTVTTITVYAEPPKPFITSNNSNPVEDEDAVALTCEPEIQNTTYLWWVNNQSLPVSPRLQLSNDNRTLTLLSVTRNDVGPYECGIQNELSVDHSDPVILNVLYGPDDPTISPSYTYYRPGVNLSLSCHAASNPPAQYSWLIDGNIQQHTQELFISNITEKNSGLYTCQANNSASGHSRTTVKTITVSAELPKPSISSNNSKPVEDKDAVAFTCEPEAQNTTYLWWVNGQSLPVSPRLQLSNGNRTLTLFNVTRNDARAYVCGIQNSVSANRSDPVTLDVLYGPDTPIISPPDSSYLSGANLNLSCHSASNPSPQYSWRINGIPQQHTQVLFIAKITPNNNGTYACFVSNLATGRNNSIVKSITVSASGTSPGLSA", "values": [{"measurement": "fold increase in CEA uptake (against vector-transfected cells)", "value": "~5", "unit": "times"}]}]}
